Laboratory results taken from patent US20110123544A1 (published 2011).

T1: recombinant human IL-12 (rhIL-12) (human, UniProt P29459 23-219; P29460 23-328)
T1 sequence (looked up) 1: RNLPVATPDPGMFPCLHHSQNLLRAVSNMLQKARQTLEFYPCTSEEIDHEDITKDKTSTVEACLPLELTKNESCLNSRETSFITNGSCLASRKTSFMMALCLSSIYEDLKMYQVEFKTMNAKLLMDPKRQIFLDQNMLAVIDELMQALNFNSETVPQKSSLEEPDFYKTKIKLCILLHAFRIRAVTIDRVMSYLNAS
T1 sequence (looked up) 2: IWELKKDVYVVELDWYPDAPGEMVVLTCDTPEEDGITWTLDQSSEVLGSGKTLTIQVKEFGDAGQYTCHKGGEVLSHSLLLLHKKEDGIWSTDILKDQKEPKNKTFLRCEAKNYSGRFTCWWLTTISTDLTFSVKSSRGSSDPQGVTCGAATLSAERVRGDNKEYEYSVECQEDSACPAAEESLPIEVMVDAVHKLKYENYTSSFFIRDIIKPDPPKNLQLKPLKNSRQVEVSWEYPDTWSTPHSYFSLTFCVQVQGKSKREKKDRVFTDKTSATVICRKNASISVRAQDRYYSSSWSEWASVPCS

T2: recombinant human IL-12 (rhIL-12) (human, UniProt P29459 23-219; P29460 23-328)
T2 chain 1: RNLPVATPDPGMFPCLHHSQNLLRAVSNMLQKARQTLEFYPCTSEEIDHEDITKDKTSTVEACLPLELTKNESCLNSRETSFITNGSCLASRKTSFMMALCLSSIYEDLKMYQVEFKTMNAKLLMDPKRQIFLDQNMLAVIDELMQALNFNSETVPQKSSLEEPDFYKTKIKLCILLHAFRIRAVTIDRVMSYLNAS
T2 chain 2: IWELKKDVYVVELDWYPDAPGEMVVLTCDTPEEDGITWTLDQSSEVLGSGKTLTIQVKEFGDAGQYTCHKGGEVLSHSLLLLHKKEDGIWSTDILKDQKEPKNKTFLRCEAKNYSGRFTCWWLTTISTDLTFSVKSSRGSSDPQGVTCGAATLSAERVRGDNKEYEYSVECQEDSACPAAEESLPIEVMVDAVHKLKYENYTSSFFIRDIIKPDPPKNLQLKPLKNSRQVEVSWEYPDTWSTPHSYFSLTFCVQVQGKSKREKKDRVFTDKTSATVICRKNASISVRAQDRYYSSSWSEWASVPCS

T3: recombinant human interleukin 12 (p40/p35 heterodimer) (human, UniProt P29460 23-328; P29459 23-219)
T3 chain 1: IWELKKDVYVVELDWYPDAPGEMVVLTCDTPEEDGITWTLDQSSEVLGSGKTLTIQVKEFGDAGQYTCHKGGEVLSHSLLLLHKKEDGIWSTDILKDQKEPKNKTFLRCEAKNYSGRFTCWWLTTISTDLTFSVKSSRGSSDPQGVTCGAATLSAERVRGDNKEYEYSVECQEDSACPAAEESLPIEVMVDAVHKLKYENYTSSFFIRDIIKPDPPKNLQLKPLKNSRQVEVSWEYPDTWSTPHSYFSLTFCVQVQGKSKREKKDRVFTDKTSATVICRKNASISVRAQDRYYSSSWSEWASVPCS
T3 chain 2: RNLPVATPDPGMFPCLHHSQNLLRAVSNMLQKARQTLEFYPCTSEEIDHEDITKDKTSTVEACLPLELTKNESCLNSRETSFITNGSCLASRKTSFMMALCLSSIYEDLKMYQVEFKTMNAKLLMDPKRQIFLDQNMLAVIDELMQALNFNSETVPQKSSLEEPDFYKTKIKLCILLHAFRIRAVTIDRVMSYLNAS

B1: 136-15 (scFv, V domains shown)
VH: QVQLVQSGGGVVQPGRSLRLSCAASGFTFSSYGMHWVRQAPGKGLEWVAFIRYDGSNKYYADSVKGRFTISRDNSKNTLYLQMKSLRAEDTAVYYCKTHGSHDNWGQGTMVTVSS
VL: SYVLTQPPSVSGTPGQRVTISCSGSRSNIGSNTVKWYQQLPGTAPKLLIYGNDQRPSGVPDRFSGSKSGTSASLAITGVQAEDEADYYCQTYDKGFTGSSVFGTGTKVTVLG
B2: 149-5 (scFv, V domains shown)
VH: QVQLVQSGGGVVQPGRSLRLSCAASGFTFSSYGMHWVRQAPGKGLEWVAFIRYDGSNKYYADSVKGRFTISRDNSKNTLYLQMKSLRAEDTAVYYCTTHGSHDTWGQGTMVTVSS
VL: SYVLTQPPSVSGTPGQRVTISCSGGRSNIGSNTVKWYQQLPGTAPKLLIYGNDQRPSGVPDRFSGSKSGTSASLAITGVQAEDEADYYCQSYDSSLWGTRVFGTGTKVTVLG
B3: 149-6 (scFv, V domains shown)
VH: QVQLVQSGGGVVQPGRSLRLSCAASGFTFSSYGMHWVRQAPGKGLEWVAFIRYDGSNKYYADSVKGRFTISRDNSKNTLYLQMKSLRAEDTAVYYCTTHGSHDNWGQGTMVTVSS
VL: SYVLTQPPSVSGTPGQRVTISCSGGRSNIVSNTVKWYQQLPGTAPKLLIYGNDQRPSGVPDRFSGSKSGTSASLAITGVQAEDEADYYCQSYDRGFTGSRVFGTGTKVTVLG
B4: Y61-L50Y-H31E IgG (antibody, V domains shown)
VH: QVQLVQSGGGVVQPGRSLRLSCAASGFTFSEYGMHWVRQAPGKGLEWVAFIRYDGSNKYYADSVKGRFTISRDNSKNTLYLQMKSLRAEDTAVYYCKTHGSHDNWGQGTMVTVSS
VL: SYVLTQPPSVSGTPGQRVTISCSGGRSWIGSNTVKWYQQLPGTAPKLLIYYNDQRPSGVPDRFSGSKSGTSASLAITGVQAEDEADYYCQSYDRGTHPALLFGTGTKVTVLG
B5: Y61-L50Y-H31E-L94Y IgG (antibody, V domains shown)
VH: QVQLVQSGGGVVQPGRSLRLSCAASGFTFSEYGMHWVRQAPGKGLEWVAFIRYDGSNKYYADSVKGRFTISRDNSKNTLYLQMKSLRAEDTAVYYCKTHGSHDNWGQGTMVTVSS
VL: SYVLTQPPSVSGTPGQRVTISCSGGRSNIGSNTVKWYQQLPGTAPKLLIYYNDQRPSGVPDRFSGSKSGTSASLAITGVQAEDEADYYCQSYDRYTHPALLFGTGTKVTVLG
B6: 99-H4 (scFv, V domains shown)
VH: QVQLVQSGGGVVQPGRSLRLSCAASGFTFSSYGMHWVRQAPGKGLEWVAFIRYDGSNKYYADSVKGRFTISRDNSKNTLYLQMKSLRAEDTAVYYCKTHGSHDNWGQGTMVTVSS
VL: SYVLTQPPSVSGTPGQRVTISCSGGRSNIGSNTVKWYQQLPGTAPKLLIYGNDQRPSGVPDRFSGSKSGTSASLAITGVQAEDEADYYCQSYDSRFTGSRVFGTGTKVTVLG
B7: 99-H7 (scFv, V domains shown)
VH: QVQLVQSGGGVVQPGRSLRLSCAASGFTFSSYGMHWVRQAPGKGLEWVAFIRYDGSNKYYADSVKGRFTISRDNSKNTLYLQMKSLRAEDTAVYYCKTHGSHDNWGQGTMVTVSS
VL: SYVLTQPPSVSGTPGQRVTISCSGGRSNIGSNTVKWYQQLPGTAPKLLIYGNDQRPSGVPDRFSGSKSGTSASLAITGVQAEDEADYYCQSYPDGTPASRVFGTGTKVTVLG
B8: 99-H11 (scFv, V domains shown)
VH: QVQLVQSGGGVVQPGRSLRLSCAASGFTFSSYGMHWVRQAPGKGLEWVAFIRYDGSNKYYADSVKGRFTISRDNSKNTLYLQMKSLRAEDTAVYYCKTHGSHDNWGQGTMVTVSS
VL: SYVLTQPPSVSGTPGQRVTISCSGGRSNIGSNTVKWYQQLPGTAPKLLIYGNDQRPSGVPDRFSGSKSGTSASLAITGVQAEDEADYYCQSYSTHMPISRVFGTGTKVTVLG
B9: 99-F6 (scFv, V domains shown)
VH: QVQLVQSGGGVVQPGRSLRLSCAASGFTFSSYGMHWVRQAPGKGLEWVAFIRYDGSNKYYADSVKGRFTISRDNSKNTLYLQMKSLRAEDTAVYYCKTHGSHDNWGQGTMVTVSS
VL: SYVLTQPPSVSGTPGQRVTISCSGGRSNIGSNTVKWYQQLPGTAPKLLIYGNDQRPSGVPDRFSGSKSGTSASLAITGVQAEDEADYYCQSYDSGSTGSRVFGTGTKVTVLG
B10: 99-F7 (scFv, V domains shown)
VH: QVQLVQSGGGVVQPGRSLRLSCAASGFTFSSYGMHWVRQAPGKGLEWVAFIRYDGSNKYYADSVKGRFTISRDNSKNTLYLQMKSLRAEDTAVYYCKTHGSHDNWGQGTMVTVSS
VL: SYVLTQPPSVSGTPGQRVTISCSGGRSNIGSNTVKWYQQLPGTAPKLLIYGNDQRPSGVPDRFSGSKSGTSASLAITGVQAEDEADYYCQSYPNSYPISRVFGTGTKVTVLG
B11: 99-F8 (scFv, V domains shown)
VH: QVQLVQSGGGVVQPGRSLRLSCAASGFTFSSYGMHWVRQAPGKGLEWVAFIRYDGSNKYYADSVKGRFTISRDNSKNTLYLQMKSLRAEDTAVYYCKTHGSHDNWGQGTMVTVSS
VL: SYVLTQPPSVSGTPGQRVTISCSGGRSNIGSNTVKWYQQLPGTAPKLLIYGNDQRPSGVPDRFSGSKSGTSASLAITGVQAEDEADYYCQSYIRAPQQVFGTGTKVTVLG

The binders below were run against T1, recombinant human IL-12 (rhIL-12) (assay: cell-based or functional assay).

Point of comparison: B1, “PHA assay IC50 (M) p70:p40 1:20” value 5e-09 M. Against it:
- B2 — within 1.5-fold, 7e-09 M
- B3 — 5-fold lower, 1e-09 M

Point of comparison: B1, “PHA assay IC50 (M) p70:p40 1:50” value 4e-09 M. Against it:
- B2 — the same, 4e-09 M
- B3 — 4-fold lower, 1e-09 M

Point of comparison: B2, “PHA assay IC50 (M) p70:p40 1:0” value 6.5e-09 M. Against it:
- B3 — 7.2-fold lower, 9e-10 M

Biological target: T1, recombinant human IL-12 (rhIL-12)
Experiment: cell-based or functional assay
Remark: another data set of the same source

Point of comparison: B5, “IFN gamma IC50” value 0.01 nM. Against it:
- B4 — 2-fold higher, 0.02 nM

Point of comparison: B4, “PHA assay IC50” value 0.06 nM. Against it:
- B5 — 6-fold lower, 0.01 nM

Biological target: T2, recombinant human IL-12 (rhIL-12)
Experiment: BIAcore

Point of comparison: HGSHIN [Y61 H101 I], koff 0.00162 s⁻¹. Against it:
- HGSHDA [Y61 H102 A] — 4.2-fold lower, 0.000382 s⁻¹
- HGSHGN [Y61 H101 G] — 2.3-fold higher, 0.00375 s⁻¹
- HGSHDP [Y61 H102 P] — within 1.5-fold, 0.00181 s⁻¹
- HGSHDG [Y61 H102 G] — 2.3-fold lower, 0.000692 s⁻¹
- HGSHDF [Y61 H102 F] — 5.1-fold lower, 0.000318 s⁻¹
- HGSHDI [Y61 H102 I] — 1.6-fold lower, 0.000996 s⁻¹
- HGSHDR [Y61 H102 R] — 2.8-fold lower, 0.000575 s⁻¹
- HGSHAN [Y61 H101 A] — 1.5-fold lower, 0.00106 s⁻¹
- HGSHDT [Y61 H102 T] — 4.9-fold lower, 0.000333 s⁻¹
- HGSHNN [Y61 H101 N] — within 1.5-fold, 0.00223 s⁻¹
- HGSHVN [Y61 H101 V] — within 1.5-fold, 0.00163 s⁻¹
- HGSHDL [Y61 H102 L] — 1.7-fold lower, 0.000956 s⁻¹

Biological target: T3, recombinant human interleukin 12 …
Experiment: BIAcore; unmutated

Point of comparison: FTFSSYGMH [Y61 H33 G], koff 0.000178 s⁻¹. Against it:
- FTFSSYGMH [Y61 H30 S] — within 1.5-fold, 0.000168 s⁻¹
- FTFSSYGMH [Y61 H32 Y] — 1.9-fold higher, 0.000337 s⁻¹
- FTFSSYGMH [Y61 H31 S] — within 1.5-fold, 0.000249 s⁻¹

What follows are binders tested against T1, recombinant human IL-12 (rhIL-12) (assay: BIAcore (SPR) off-rate on IL-12 chip).
Text: The system utilizes the optical properties of SPR to detect alterations in protein concentrations within a dextran biosensor matrix. Proteins are covalently bound to the dextran matrix at known concentrations. […] To determine the off rate (koff), on rate (kₒₙ), association rate (Ka) and dissociation rate (Kd) constants, BIAcore kinetic evaluation software (version 2.1) was used.

Point of comparison: B5, koff 4.64e-05 s⁻¹. Against it:
- B4 — 1.6-fold lower, 2.99e-05 s⁻¹
- B6 — 100-fold higher, 0.0048 s⁻¹
- B7 — 71-fold higher, 0.0033 s⁻¹
- B8 — 110-fold higher, 0.0049 s⁻¹
- B9 — 110-fold higher, 0.0049 s⁻¹
- B10 — 100-fold higher, 0.0048 s⁻¹
- B11 — 80-fold higher, 0.0037 s⁻¹

Biological target: T3, recombinant human interleukin 12 …
Experiment: BIAcore; unmutated
Remark: another data set of the same source

Point of comparison: FIRYDGSNKYYADSVKG [Y61 H53 D], koff 0.000151 s⁻¹. Against it:
- FIRYDGSNKYYADSVKG [Y61 H54 G] — within 1.5-fold, 0.000178 s⁻¹
- FIRYDGSNKYYADSVKG [Y61 H52 R] — within 1.5-fold, 0.000206 s⁻¹
- FIRYDGSNKYYADSVKG [Y61 H50 F] — within 1.5-fold, 0.000204 s⁻¹
